Measurements taken from paper PMC10641296.

Biological target: SCM-2 on the surface of S. canis strain IMT40096 (Streptococcus canis (endogenous in strain IMT40096))
Experiment: flow cytometry on cells; S. canis bacteria (mid-exponential phase) incubated with FITC-labeled human fibrinogen in PBS, 30 min at 37°C, fixed; MFI normalized to SCM-1 S. canis G361; scm2 knock-out of IMT40096 as control

FITC-labeled human fibrinogen (from UniProt P02671 36-866; P02675 45-491; P02679 27-453) (complex)
fold of fluorescence against S. canis G361: > 3 fold of G361
